Results taken from paper PMC2929994 (Molecular Biology of the Cell, 2010).
Read-outs that look alike come from different tables or passages of the source.

Experiments:
Test in all cases: split reporter
[1] = target: Rsr1 GTPase, split-YFP fusion for BiFC (YFP^N-Rsr1 / YFP^C-Rsr1) (S. cerevisiae) (UniProt P13856)
[2] = target: Rsr1 GTPase, split-YFP fusion for BiFC (YFP^N-Rsr1 / YFP^C-Rsr1) (S. cerevisiae) (UniProt P13856); remark: listed apart in the source
split reporter = target: the molecule itself

Row | percent of unbudded cells with BiFC signal [1] | percent of unbudded cells with BiFC signal [2] | Molecule | percent of unbudded cells with BiFC signal (split reporter)
1 | < 2% | 1.7% | Rsr1-7^K260–264S, split-YFP fusion for BiFC (from UniProt P13856 1-272) (natural protein) | –
2 | – | – | Rsr1^K16N, split-YFP fusion for BiFC (natural protein, S. cerevisiae, UniProt P13856 1-272, looked up) MRDYKLVVLGAGGVGNSCLTVQFVQGVYLDTYDPTIEDSYRKTIEIDNKVFDLEILDTAGIAQFTAMRELYIKSGMGFLLVYSVTDRQSLEELMELREQVLRIKDSDRVPMVLIGNKADLINERVISVEEGIEVSSKWGRVPFYETSALLRSNVDEVFVDLVRQIIRNEMESVAVKDARNQSQQFSKIESPSTRLPSSAKQDTKQSNNKQSSKGLYNKSSQGQAKVKQSTPVNEKHKPSHAVPKSGSSNRTGISATSQQKKKKKNASTCTIL | 84%
